B1: 3-38BN002 (5F1O) (bispecific antibody)
chain: EVQLVESGGGLVQPGRSLRLSCAASGFTFDDYTMHWVRQAPGKGLEWVSDISWNSGSIGYADSVKGRFTVSRDNAKNSLYLQMNSLRGEDTAIYYCAKDMSGYGHYGKYGMDVWGQGTTVTVSSASTKGPSVFPLAPSSKSTSGGTAALGCLVKDYFPEPVTVSWNSGALTSGVHTFPAVLQSSGLYSLSSVVTVPSSSLGTQTYICNVNHKPSNTKVDKKVEPKSCAASGGAGSDVQLQESGGGLVQAGHSLRLSCVGSGSRFDNYAMGWFRQAPGKEREFVAAISWSSGTTRYLDTVKGRFTISRDNAKSTVYLQMNSLKPEDTAVYYCAARYQPRYYDSGDMDGYEYDNWGQGTQVTVSSGAVPLSLYGAGGDIQMTQSPILLSASVGDRVTITCRASQSIRSYLNWYQQRTNGSPRLLIYAASSLQSGVPSRFSGSGSGTDFTLTINSLQPDDEADYYCQQTYSNPPITFGAGTRLEIKRTVAAPSVFIFPPSDEQLKSGTASVVCLLNNFYPREAKVQWKVDNALQSGNSQESVTEQDSKDSTYSLSSTLTLSKADYEKHKVYACEVTHQGLSSPVTKSFNRGEC
notes: Single chain with cleavable linker L2 (MMP-9 site); also called 38N002; CD3HC-L1-CD38nanobody (5F1O)-L2-CD3LC
B2: 3-38BN003 (5F21) (bispecific antibody)
chain: EVQLVESGGGLVQPGRSLRLSCAASGFTFDDYTMHWVRQAPGKGLEWVSDISWNSGSIGYADSVKGRFTVSRDNAKNSLYLQMNSLRGEDTAIYYCAKDMSGYGHYGKYGMDVWGQGTTVTVSSASTKGPSVFPLAPSSKSTSGGTAALGCLVKDYFPEPVTVSWNSGALTSGVHTFPAVLQSSGLYSLSSVVTVPSSSLGTQTYICNVNHKPSNTKVDKKVEPKSCAASGGAGSDVQLQESGGGSVQAGGSLTLSCTASGLLFRLASMGWYRQAPGKERELIATITVGGKTNYKDSVQGRFIITRDNTGDNTKSTVTLQMNRLKPEDTAVYYCNTASPAVGADTWGQGTRVTVSSGAVPLSLYGAGGDIQMTQSPILLSASVGDRVTITCRASQSIRSYLNWYQQRTNGSPRLLIYAASSLQSGVPSRFSGSGSGTDFTLTINSLQPDDEADYYCQQTYSNPPITFGAGTRLEIKRTVAAPSVFIFPPSDEQLKSGTASVVCLLNNFYPREAKVQWKVDNALQSGNSQESVTEQDSKDSTYSLSSTLTLSKADYEKHKVYACEVTHQGLSSPVTKSFNRGEC
notes: Single chain with cleavable linker L2 (MMP-9 site); also called 38N003; CD3HC-L1-CD38nanobody (5F21)-L2-CD3LC
B3: 3-38BN005 (5F1O) (bispecific antibody)
chain: EVQLVESGGGLVQPGRSLRLSCAASGFTFDDYTMHWVRQAPGKGLEWVSDISWNSGSIGYADSVKGRFTVSRDNAKNSLYLQMNSLRGEDTAIYYCAKDMSGYGHYGKYGMDVWGQGTTVTVSSASTKGPSVFPLAPSSKSTSGGTAALGCLVKDYFPEPVTVSWNSGALTSGVHTFPAVLQSSGLYSLSSVVTVPSSSLGTQTYICNVNHKPSNTKVDKKVEPKSCAASGGAGSDVQLQESGGGLVQAGHSLRLSCVGSGSRFDNYAMGWFRQAPGKEREFVAAISWSSGTTRYLDTVKGRFTISRDNAKSTVYLQMNSLKPEDTAVYYCAARYQPRYYDSGDMDGYEYDNWGQGTQVTVSSSSGASASAAGGSDIQMTQSPILLSASVGDRVTITCRASQSIRSYLNWYQQRTNGSPRLLIYAASSLQSGVPSRFSGSGSGTDFTLTINSLQPDDEADYYCQQTYSNPPITFGAGTRLEIKRTVAAPSVFIFPPSDEQLKSGTASVVCLLNNFYPREAKVQWKVDNALQSGNSQESVTEQDSKDSTYSLSSTLTLSKADYEKHKVYACEVTHQGLSSPVTKSFNRGEC
notes: Single chain with non-cleavable linker L2; also called CD3HC-L1-CD38nanobody (5F1O)-L2-CD3LC
B4: 3-38BN006 (5F21) (bispecific antibody)
chain: EVQLVESGGGLVQPGRSLRLSCAASGFTFDDYTMHWVRQAPGKGLEWVSDISWNSGSIGYADSVKGRFTVSRDNAKNSLYLQMNSLRGEDTAIYYCAKDMSGYGHYGKYGMDVWGQGTTVTVSSASTKGPSVFPLAPSSKSTSGGTAALGCLVKDYFPEPVTVSWNSGALTSGVHTFPAVLQSSGLYSLSSVVTVPSSSLGTQTYICNVNHKPSNTKVDKKVEPKSCAASGGAGSDVQLQESGGGSVQAGGSLTLSCTASGLLFRLASMGWYRQAPGKERELIATITVGGKTNYKDSVQGRFIITRDNTGDNTKSTVTLQMNRLKPEDTAVYYCNTASPAVGADTWGQGTRVTVSSSSGASASAAGGSDIQMTQSPILLSASVGDRVTITCRASQSIRSYLNWYQQRTNGSPRLLIYAASSLQSGVPSRFSGSGSGTDFTLTINSLQPDDEADYYCQQTYSNPPITFGAGTRLEIKRTVAAPSVFIFPPSDEQLKSGTASVVCLLNNFYPREAKVQWKVDNALQSGNSQESVTEQDSKDSTYSLSSTLTLSKADYEKHKVYACEVTHQGLSSPVTKSFNRGEC
notes: Single chain with non-cleavable linker L2; also called 38N006; CD3HC-L1-CD38nanobody (5F21)-L2-CD3LC
B5: 3-38BN001 (5F1K) (bispecific antibody)
chain: EVQLVESGGGLVQPGRSLRLSCAASGFTFDDYTMHWVRQAPGKGLEWVSDISWNSGSIGYADSVKGRFTVSRDNAKNSLYLQMNSLRGEDTAIYYCAKDMSGYGHYGKYGMDVWGQGTTVTVSSASTKGPSVFPLAPSSKSTSGGTAALGCLVKDYFPEPVTVSWNSGALTSGVHTFPAVLQSSGLYSLSSVVTVPSSSLGTQTYICNVNHKPSNTKVDKKVEPKSCAASGGAGSDVQLQESGGGLVQAGGSLRLSCTGSGRTFRNYPMAWFRQAPGKEREFVAGITWVGASTLYADFAKGRFTISRDNAKNTVYLQMNSLKPEDTAVYSCAAGRGIVAGRIPAEYADWGQGTQVTVSSGAVPLSLYGAGGDIQMTQSPILLSASVGDRVTITCRASQSIRSYLNWYQQRTNGSPRLLIYAASSLQSGVPSRFSGSGSGTDFTLTINSLQPDDEADYYCQQTYSNPPITFGAGTRLEIKRTVAAPSVFIFPPSDEQLKSGTASVVCLLNNFYPREAKVQWKVDNALQSGNSQESVTEQDSKDSTYSLSSTLTLSKADYEKHKVYACEVTHQGLSSPVTKSFNRGEC
notes: Single-chain anti-CD3 Fab heavy chain - linker L1 - anti-CD38 nanobody 5F1K - cleavable linker L2 (MMP-9 site) - anti-CD3 light chain; also called 3-38N001; CD3HC-L1-CD38nanobody (5F1K)-L2-CD3LC
B6: 3-38BN004 (5F1K) (bispecific antibody)
chain: EVQLVESGGGLVQPGRSLRLSCAASGFTFDDYTMHWVRQAPGKGLEWVSDISWNSGSIGYADSVKGRFTVSRDNAKNSLYLQMNSLRGEDTAIYYCAKDMSGYGHYGKYGMDVWGQGTTVTVSSASTKGPSVFPLAPSSKSTSGGTAALGCLVKDYFPEPVTVSWNSGALTSGVHTFPAVLQSSGLYSLSSVVTVPSSSLGTQTYICNVNHKPSNTKVDKKVEPKSCAASGGAGSDVQLQESGGGLVQAGGSLRLSCTGSGRTFRNYPMAWFRQAPGKEREFVAGITWVGASTLYADFAKGRFTISRDNAKNTVYLQMNSLKPEDTAVYSCAAGRGIVAGRIPAEYADWGQGTQVTVSSSSGASASAAGGSDIQMTQSPILLSASVGDRVTITCRASQSIRSYLNWYQQRTNGSPRLLIYAASSLQSGVPSRFSGSGSGTDFTLTINSLQPDDEADYYCQQTYSNPPITFGAGTRLEIKRTVAAPSVFIFPPSDEQLKSGTASVVCLLNNFYPREAKVQWKVDNALQSGNSQESVTEQDSKDSTYSLSSTLTLSKADYEKHKVYACEVTHQGLSSPVTKSFNRGEC
notes: also called 3-38N004; CD38-CD3 BIONIC

These results are taken from patent US20260008864A1 (CITY OF HOPE, published 2026).

For the first test, the target named is T1, CD3-Fc.
T1 construct: Immobilised on a CM5 chip at 1000 RU; also called CD3 target
Briefly: SPR, CD3-Fc immobilised on CM5 chip, 25 C. Here is the method: CD3-Fc was immobilized on a CM5 sensor chip at 1000 response units (RU) using ECD/NHS coupling methods. […] All samples were prepared at concentrations of 30 nM, 10 nM, 3 nM or 1 nM in HBS-EP+ runner buffer at 25° C.
For orientation: Surface plasmon resonance follows binding to a sensor surface in real time, without labels.
Regarding B1, the affinity, expressed as Kd, was 530000 pM; the koff was determined as 0.0227 s⁻¹; the kon was 42900 M⁻¹ s⁻¹.
For B2, the Kd was 522000 pM, the koff is 0.0525 s⁻¹ and the kon is 101000 M⁻¹ s⁻¹.

A further test addresses T2, CD38-Fc (UniProt P28907 43-300).
T2 construct: Immobilised on a CM5 chip at 200 RU; also called CD38 antigen target; not shown: Fc part
The test is described as follows: SPR, CD38-Fc immobilised on CM5 chip, 25 C. Here is the method:
(§1) CD38-Fc was immobilized on a CM5 sensor chip at 200 response units (RU) using ECD/NHS coupling. […] These bispecific compounds include a protease cleavage site within one of the linker regions. […] All samples were prepared at concentrations of 30 nM, 10 nM, 3 nM or 1 nM in HBS-EP+ runner buffer at 25° C.
In turn, B1 came in with a Kd of 772 pM, a koff of 0.000127 s⁻¹ and a kon of 165000 M⁻¹ s⁻¹.
With B3, the kon turned out to be 590000 M⁻¹ s⁻¹.
Molecule B2 registered a Kd of 478 pM, a koff of 6.84e-05 s⁻¹ and a kon of 143000 M⁻¹ s⁻¹.
B4 yielded a Kd of 474 pM, a koff of 7.33e-05 s⁻¹ and a kon of 155000 M⁻¹ s⁻¹.
B5 yielded a Kd of 946 pM, a koff of 0.000696 s⁻¹ and a kon of 735000 M⁻¹ s⁻¹.
In turn, B6 returned a Kd of 962 pM, a koff of 0.000711 s⁻¹ and an on-rate (kon) of 740000 M⁻¹ s⁻¹.

A further test concerns the target T2, CD38-Fc. Briefly: SPR, CD38-Fc immobilised on CM5 chip, 25 C; ** = kd outside of detectable limits. The procedure:
as §1
On to B3, for which the koff was less than 1e-05 s⁻¹.

The target in the next test is T3, CD3 on cells (PBMC, primary patient samples).
T3 construct: whole, on cells
Briefly: flow cytometry, PBMC treated 1 h with 10 ug/mL of the binder, dot plot CD38-PE against CD3-V450; the C-IgG panel prints 25%; the filing reads the figure as binding to CD3 and CD38. The procedure: (§2) The CD3-CD38 compounds were then incubated with PBMCs to assess binding to CD3 and CD38 antigens presented on effector cells.
For orientation: Flow cytometry measures light scatter and fluorescence of single cells or particles in a stream.
With B1, the “CD3 (% of PBMC in the CD3-V450 positive, CD38-PE negative quadrant)” value was 12%.
For B3, the “CD3 (% of PBMC in the CD3-V450 positive, CD38-PE negative quadrant)” value was determined as 11%.
As for B2, the “CD3 (% of PBMC in the CD3-V450 positive, CD38-PE negative quadrant)” value worked out at 12%.
In the case of B4, the “CD3 (% of PBMC in the CD3-V450 positive, CD38-PE negative quadrant)” value worked out at 12%.
As for B5, the “CD3 (% of PBMC in the CD3-V450 positive, CD38-PE negative quadrant)” value came to 13%.
The same measure, in the same setting: the result for B6 reads 11%.

The next test has as its target T4, CD38 on cells (Nomo-1, SKM-1, MM1S, THP-1, HL60, PBMC, primary patient samples) (UniProt P28907 1-300).
T4 construct: whole, on cells
The test is described as follows: flow cytometry, PBMC treated 1 h with 10 ug/mL of the binder, dot plot CD38-PE against CD3-V450; the C-IgG panel prints 48%; CD3+CD38+ quadrant of this panel: 0%; the filing reads the figure as binding to CD3 and CD38. Here is the method:
as §2
Take B2: the “CD38+ (% of PBMC in the CD38-PE positive, CD3-V450 negative quadrant)” value stood at 15%.
In the case of B4, the “CD38+ (% of PBMC in the CD38-PE positive, CD3-V450 negative quadrant)” value was determined as 11%.
As for B5, the “CD38+ (% of PBMC in the CD38-PE positive, CD3-V450 negative quadrant)” value was 1%.
Consider B6, for which the “CD38+ (% of PBMC in the CD38-PE positive, CD3-V450 negative quadrant)” value was determined as 1%.

Broadly, the Kd is the constant that tells how readily two partners part at equilibrium. Higher therefore signals weaker binding. One may read the koff as a measure of how fast the partners let go of each other. A higher koff goes with a short-lived complex. For orientation: kon means the rate constant with which the complex forms. Read a high kon as faster complex formation.
